Molecular target: T1, EBV gH/gL (Epstein-Barr virus, UniProt P03212+P03231)
T1 construct: expressed in transfected cells; host or cells: CHO cells
Test: Flow cytometry of gH/gL-expressing CHO cells
Type: binding
Source text: FIGS. 10A-10B show the comparison of murine E1D1 (mE1D1) and humanized E1D1 (hE1D1). FIG. 10A: Sequence comparison of mE1D1 and hE1D1. Alignment of heavy chain (i) and light chain (ii) variable region amino acid sequences by the Clustal W. Murine E1D1 heavy chain and light chain AA sequences are represented by SEQ ID NOs: 183 and 184, respectively, and humanized E1D1 heavy chain and light chain AA sequences are represented by SEQ ID NOs: 185 and 186, respectively. Regions of identical sequence are represented by *. Regions of similarity are represented by :. FIG. 10B: Flow cytometric analysis of mE1D1 and hE1D1 gH/gL specificity. CHO wild type cells and gH/gL-expressing CHO cells were stained with mE1 D1 and hE1 D1, followed by secondary goat anti-mouse or anti-human conjugated to AF488. Unstained cells and cells stained with secondary goat anti-mouse or anti-human conjugated to AF488 alone, were used as negative controls.
Similar to Example 4, humanized E1D1 antibody was produced and its specificity was compared to mouse E1D1 by flow cytometric analysis (FIG. 10).
Flow cytometric analysis of gp350 and gH/gL specificity was performed. CHO wild type cells and gp350 or gH/gL-expressing CHO cells were stained with primary antibodies, followed by secondary goat anti-mouse or anti-human conjugated to AF488. […]

B1: humanized E1D1: humanized anti-EBV gH/gL antibody E1D1; SEQ ID NOs: 185 and 186 (antibody, V domains shown)
VH: EVQLVESGGGLVQPGGSLRLSCAASGYTFTDYVISWVRQSPGKGLEWIGEIYPESGNTYYADSVKGRATLSADKSKNTAYLQMNSLRAEDTAIYFCAEGYAMDFWGQGTLVTVSS
VL: DIQMTQSPILLSASVGDRVTITCRSSQSLLHSNGNTYLHWYQQRTNGSPRLLIYKVSNRFSGVPSRFSGSGSGTDFTLTISSLQPEDEADYFCSQSIHVPRTFGAGTKVEIKR
With B1 as the molecule, how does the “binding specificity to EBV gH/gL by flow cytometry” value read?
The value was “did not affect its binding specificity to EBV gH/gL”.
